For experiment [1], the target named is T1, human IL-2Rα (CD25) (human, UniProt P01589 22-240, limits assumed).
T1 construct: also called hIL-2Rα
T1 sequence: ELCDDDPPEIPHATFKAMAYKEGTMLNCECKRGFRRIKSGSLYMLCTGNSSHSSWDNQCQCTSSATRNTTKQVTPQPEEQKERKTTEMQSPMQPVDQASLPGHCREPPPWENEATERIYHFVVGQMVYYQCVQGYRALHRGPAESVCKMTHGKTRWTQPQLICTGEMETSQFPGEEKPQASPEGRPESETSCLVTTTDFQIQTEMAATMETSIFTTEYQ
Kind of experiment: BLI (OCTET RED96), hIL-2Rα loaded on the biosensor, fusion protein in solution at 33.3, 100 and 300 nM. Here is the method:
(§1) OCTET® RED96 was used to characterize the interactions of anti-HSA-hIL-2 fusion proteins with human IL-2Rα (CD25) and IL-2Rβ (CD122). Briefly, hIL-2Rα and hIL-2Rβ were each loaded onto a biosensor. Each biosensor was then dipped into a solution containing an anti-HSA-hIL-2 fusion protein at 10 to 2,000 nM. Primary experimental data was analyzed with global fitting to determine a binding affinity (Kd).

The target of experiment [2] is T2, human IL-2Rβ (CD122) (human, UniProt P14784 27-239).
T2 construct: also called hIL-2Rβ
T2 sequence: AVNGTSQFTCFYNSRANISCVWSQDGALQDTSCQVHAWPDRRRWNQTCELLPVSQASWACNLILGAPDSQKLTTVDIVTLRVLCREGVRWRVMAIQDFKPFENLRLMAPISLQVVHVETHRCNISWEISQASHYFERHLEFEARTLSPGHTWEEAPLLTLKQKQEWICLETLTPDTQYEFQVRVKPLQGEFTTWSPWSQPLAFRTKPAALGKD
Kind of experiment: BLI (OCTET RED96), receptor loaded on biosensor, global fitting. Here is the method: as §1

For experiment [3], the target named is T1, human IL-2Rα (CD25). Kind of experiment: BLI (OCTET RED96), receptor loaded on biosensor, fusion protein in solution. Here is the method:
as §1

Our source for the binding result and Kd values is patent US20240417453A1 (ANWITA BIOSCIENCES, published 2024).

B1: Anti-HSA-IL-2 A2 (IL-2-IL15 chimera 12) (other)
chain: QVQLVESGGGVVQPGGSLRLSCAASGFAFRGFGMSWVRQAPGKGLEWVSSINNGGSDTYYADSVKGRFTISRDNSKNTLYLQMNSLRAEDTAVYYCAIGGPGASPSGQGTQVTVSSGGGGSGGGGSGGGGSAPTSSSTKKTQLQLKHLLLDLQMILNGIQSMHIDATTFKFYMPKKATELKHLQCLEEELKPLEEVLNLAQSKNFHLRPRDLISNINVIVLELKGSETTFMCEYADETATIVEFLNRWITFSQSIISTLT
notes: E15K, C125S); Produced in CHO cells; also called anti-HSA-hIL-2 fusion protein A2
As for B1, the binding result in experiment [1] is on record as “no binding (tested: 300 nM)”. In experiment [2], this molecule came in with a Kd of 139 nM.

B2: Anti-HSA-IL-2 A15 (IL-2-IL15 chimera 12) (other)
chain: QVQLVESGGGVVQPGGSLRLSCAASGFAFRGFGMSWVRQAPGKGLEWVSSINNGGSDTYYADSVKGRFTISRDNSKNTLYLQMNSLRAEDTAVYYCAIGGPGASPSGQGTQVTVSSASTKGGGGGSGGGGSAPTSSSTKKTQLQLKHLLLDLQMILNGIQSMHIDATTFKFYMPKKATELKHLQCLEEELKPLEEVLNLAQSKNFHLRPRDLISNINVIVLELKGSETTFMCEYADETATIVEFLNRWITFSQSIISTLT
notes: Produced in CHO cells; also called anti-HSA-hIL-2 fusion protein A15
Consider B2, for which, in experiment [2], the affinity, expressed as Kd, was 94 nM. Also, in experiment [3], the binding result is given as “no binding (tested: 10 to 2,000 nM)”.

B3: Anti-HSA-IL-2 A1 (IL-2-IL15 chimera 7) (other)
chain: QVQLVESGGGVVQPGGSLRLSCAASGFAFRGFGMSWVRQAPGKGLEWVSSINNGGSDTYYADSVKGRFTISRDNSKNTLYLQMNSLRAEDTAVYYCAIGGPGASPSGQGTQVTVSSGGGGSGGGGSGGGGSAPTSSSTKKTQLQLKHLLLDLQMILNGIQSMEIDATTFKFYMPKKATELKHLQCLEEELKPLEEVLNLAQSKNFHLRPRDLISNINVIVLELKGSETTFMCEYADETATIVEFLNRWITFSQSIISTLT
notes: E15K, C125S); Produced in CHO cells; also called anti-HSA-hIL-2 fusion protein A1
As for B3, binding in experiment [2] was put at a Kd of 55 nM. In experiment [3], the binding result is on record as “no binding (tested: 10 to 2,000 nM)”.

B4: Anti-HSA-IL-2 A4 (IL-2-IL15 chimera 12) (other)
chain: EVQLVESGGGLVQPGGSLRLSCAASGSTWSINTLAWYRQAPGKQRDLVARISSGGSTYYADSVKGRFTISRDNSKNTLYLQMNSLRAEDTAVYYCYAQSTWYPPSWGQGTLVTVSSGGGGSGGGGSGGGGSAPTSSSTKKTQLQLKHLLLDLQMILNGIQSMHIDATTFKFYMPKKATELKHLQCLEEELKPLEEVLNLAQSKNFHLRPRDLISNINVIVLELKGSETTFMCEYADETATIVEFLNRWITFSQSIISTLT
notes: Produced in CHO cells; also called anti-HSA-hIL-2 fusion protein A4
As for B4, the binding result in experiment [1] was “no binding (tested: 300 nM)”.

B5: Anti-HSA-IL-2 A3 (IL-2-IL15 chimera 7) (other)
chain: EVQLVESGGGLVQPGGSLRLSCAASGSTWSINTLAWYRQAPGKQRDLVARISSGGSTYYADSVKGRFTISRDNSKNTLYLQMNSLRAEDTAVYYCYAQSTWYPPSWGQGTLVTVSSGGGGSGGGGSGGGGSAPTSSSTKKTQLQLKHLLLDLQMILNGIQSMEIDATTFKFYMPKKATELKHLQCLEEELKPLEEVLNLAQSKNFHLRPRDLISNINVIVLELKGSETTFMCEYADETATIVEFLNRWITFSQSIISTLT
notes: Produced in CHO cells; also called anti-HSA-hIL-2 fusion protein A3
As for B5, the binding result in experiment [3] is on record as “no binding (tested: 10 to 2,000 nM)”.

B6: Anti-HSA-IL-2 A17 (IL-2-IL15 chimera 12) (other)
chain: EVQLVESGGGLVQPGGSLRLSCAASGSTWSINTLAWYRQAPGKQRDLVARISSGGSTYYADSVKGRFTISRDNSKNTLYLQMNSLRAEDTAVYYCYAQSTWYPPSWGQGTLVTVSSASTKGGGGGSGGGGSAPTSSSTKKTQLQLKHLLLDLQMILNGIQSMHIDATTFKFYMPKKATELKHLQCLEEELKPLEEVLNLAQSKNFHLRPRDLISNINVIVLELKGSETTFMCEYADETATIVEFLNRWITFSQSIISTLT
notes: Produced in CHO cells; also called anti-HSA-hIL-2 fusion protein A17
As for B6, in experiment [3], the binding result is “no binding (tested: 10 to 2,000 nM)”.

By Kd is commonly meant the constant that tells how readily two partners part at equilibrium.
